Measurements reported in the supplement of paper PMC5998384.

Columns and labels:
[1] = test system: HeLa Kyoto; assay: solubility in G1/S (NP-40 vs SDS abundance) (log2 ratio); higher = more soluble; settings: cell cycle stage: G1/S
[2] = test system: HeLa Kyoto; assay: melting temperature (median over replicates), in situ; higher = more thermally stable
[3] = test system: HeLa Kyoto; assay: solubility change mitosis vs G1/S (difference of NP-40 vs SDS log2 ratios) (log2 ratio difference); higher = more soluble in mitosis
[4] = test system: HeLa Kyoto; assay: thermal stability score vs G1/S (z-score of summed log2 fold changes over temperatures); higher = more thermally stable than in G1/S
[5] = cell cycle stage: early G1 (4.5 h after nocodazole release)
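For melting temperature (median over replicates), in situ in this document: HeLa Kyoto cells synchronized by double thymidine or nocodazole block, proteins quantified by TMT10plex mass spectrometry, three independent biological replicates.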
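For solubility change mitosis vs G1/S (difference of NP-40 vs SDS log2 ratios) in this document: synchronized HeLa Kyoto cells (double thymidine block for G1/S, nocodazole release for mitosis), protein amounts in NP-40 versus SDS lysates quantified by mass spectrometry, three biological replicates.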
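For solubility in G1/S (NP-40 vs SDS abundance) in this document: HeLa Kyoto cells arrested at G1/S by double thymidine block, proteins quantified by TMT10plex mass spectrometry in mild NP-40 versus SDS extracts, three biological replicates.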
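For thermal stability score vs G1/S (z-score of summed log2 fold changes over temperatures) in this document: synchronized HeLa Kyoto cells, proteins quantified by TMT10plex mass spectrometry, three biological replicates, mitosis taken 0.5 h after nocodazole release, G1/S directly after double thymidine block.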

| Sequence | solubility in G1/S (log2) [1] | melting temperature ([2]; cell cycle stage: G1/S) | melting temperature ([2]; cell cycle stage: mitosis) | solubility change mitosis (log2) [3] | thermal stability score [4, 5] | thermal stability score ([4]; cell cycle stage: mitosis) |
| --- | --- | --- | --- | --- | --- | --- |
| MAARRITQETFDAVLQEKAKRYHMDASGEAVSETLQFKAQDLLRAVPRSRAEMYDDVHSDGRYSLSGSVAHSRDAGREGLRSDVFPGPSFRSSNPSISDDSYFRKECGRDLEFSHSDSRDQVIGHRKLGHFRSQDWKFALRGSWEQDFGHPVSQESSWSQEYSFGPSAVLGDFGSSRLIEKECLEKESRDYDVDHPGEADSVLRGGSQVQARGRALNIVDQEGSLLGKGETQGLLTAKGGVGKLVTLRNVSTKKIPTVNRITPKTQGTNQIQKNTPSPDVTLGTNPGTEDIQFPIQKIPLGLDLKNLRLPRRKMSFDIIDKSDVFSRFGIEIIKWAGFHTIKDDIKFSQLFQTLFELETETCAKMLASFKCSLKPEHRDFCFFTIKFLKHSALKTPRVDNEFLNMLLDKGAVKTKNCFFEIIKPFDKYIMRLQDRLLKSVTPLLMACNAYELSVKMKTLSNPLDLALALETTNSLCRKSLALLGQTFSLASSFRQEKILEAVGLQDIAPSPAAFPNFEDSTLFGREYIDHLKAWLVSSGCPLQVKKAEPEPMREEEKMIPPTKPEIQAKAPSSLSDAVPQRADHRVVGTIDQLVKRVIEGSLSPKERTLLKEDPAYWFLSDENSLEYKYYKLKLAEMQRMSENLRGADQKPTSADCAVRAMLYSRAVRNLKKKLLPWQRRGLLRAQGLRGWKARRATTGTQTLLSSGTRLKHHGRQAPGLSQAKPSLPDRNDAAKDCPPDPVGPSPQDPSLEASGPSPKPAGVDISEAPQTSSPCPSADIDMKTMETAEKLARFVAQVGPEIEQFSIENSTDNPDLWFLHDQNSSAFKFYRKKVFELCPSICFTSSPHNLHTGGGDTTGSQESPVDLMEGEAEFEDEPPPREAELESPEVMPEEEDEDDEDGGEEAPAPGGAGKSEGSTPADGLPGEAAEDDLAGAPALSQASSGTCFPRKRISSKSLKVGMIPAPKRVCLIQEPKVHEPVRIAYDRPRGRPMSKKKKPKDLDFAQQKLTDKNLGFQMLQKMGWKEGHGLGSLGKGIREPVSVGTPSEGEGLGADGQEHKEDTFDVFRQRMMQMYRHKRANK [SUGP2] | -0.497 | 46 °C | 48.8 °C | 0.277 | 1.78 | 2.89 |
| MAARSWQDELAQQAEEGSARLREMLSVGLGFLRTELGLDLGLEPKRYPGWVILVGTGALGLLLLFLLGYGWAAACAGARKKRRSPPRKREEAAAVPAAAPDDLALLKNLRSEEQKKKNRKKLSEKPKPNGRTVEVAEGEAVRTPQSVTAKQPPEIDKKNEKSKKNKKKSKSDAKAVQNSSRHDGKEVDEGAWETKISHREKRQQRKRDKVLTDSGSLDSTIPGIENTITVTTEQLTTASFPVGSKKNKGDSHLNVQVSNFKSGKGDSTLQVSSGLNENLTVNGGGWNEKSVKLSSQISAGEEKWNSVSPASAGKRKTEPSAWSQDTGDANTNGKDWGRSWSDRSIFSGIGSTAEPVSQSTTSDYQWDVSRNQPYIDDEWSGLNGLSSADPNSDWNAPAEEWGNWVDEERASLLKSQEPIPDDQKVSDDDKEKGEGALPTGKSKKKKKKKKKQGEDNSTAQDTEELEKEIREDLPVNTSKTRPKQEKAFSLKTISTSDPAEVLVKNSQPIKTLPPATSTEPSVILSKSDSDKSSSQVPPILQETDKSKSNTKQNSVPPSQTKSETSWESPKQIKKKKKARRET [MTDH] | -0.39 | 59.1 °C | 58.3 °C | 0.414 | -2.14 | -6.31 |
| MAARVLIIGSGGREHTLAWKLAQSHHVKQVLVAPGNAGTACSEKISNTAISISDHTALAQFCKEKKIEFVVVGPEAPLAAGIVGNLRSAGVQCFGPTAEAAQLESSKRFAKEFMDRHGIPTAQWKAFTKPEEACSFILSADFPALVVKASGLAAGKGVIVAKSKEEACKAVQEIMQEKAFGAAGETIVIEELLDGEEVSCLCFTDGKTVAPMPPAQDHKRLLEGDGGPNTGGMGAYCPAPQVSNDLLLKIKDTVLQRTVDGMQQEGTPYTGILYAGIMLTKNGPKVLEFNCRFGDPECQVILPLLKSDLYEVIQSTLDGLLCTSLPVWLENHTALTVVMASKGYPGDYTKGVEITGFPEAQALGLEVFHAGTALKNGKVVTHGGRVLAVTAIRENLISALEEAKKGLAAIKFEGAIYRKDVGFRAIAFLQQPRSLTYKESGVDIAAGNMLVKKIQPLAKATSRSGCKVDLGGFAGLFDLKAAGFKDPLLASGTDGVGTKLKIAQLCNKHDTIGQDLVAMCVNDILAQGAEPLFFLDYFSCGKLDLSVTEAVVAGIAKACGKAGCALLGGETAEMPDMYPPGEYDLAGFAVGAMERDQKLPHLERITEGDVVVGIASSGLHSNGFSLVRKIVAKSSLQYSSPAPDGCGDQTLGDLLLTPTRIYSHSLLPVLRSGHVKAFAHITGGGLLENIPRVLPEKLGVDLDAQTWRIPRVFSWLQQEGHLSEEEMARTFNCGVGAVLVVSKEQTEQILRDIQQHKEEAWVIGSVVARAEGSPRVKVKNLIESMQINGSVLKNGSLTNHFSFEKKKARVAVLISGTGSNLQALIDSTREPNSSAQIDIVISNKAAVAGLDKAERAGIPTRVINHKLYKNRVEFDSAIDLVLEEFSIDIVCLAGFMRILSGPFVQKWNGKMLNIHPSLLPSFKGSNAHEQALETGVTVTGCTVHFVAEDVDAGQIILQEAVPVKRGDTVATLSERVKLAEHKIFPAALQLVASGTVQLGENGKICWVKEE [GART] | 0.201 | 50.8 °C | 51 °C | -0.137 | 0.0198 | 0.936 |
| MAASAAAASAAAASAASGSPGPGEGSAGGEKRSTAPSAAASASASAAASSPAGGGAEALELLEHCGVCRERLRPEREPRLLPCLHSACSACLGPAAPAAANSSGDGGAAGDGTVVDCPVCKQQCFSKDIVENYFMRDSGSKAATDAQDANQCCTSCEDNAPATSYCVECSEPLCETCVEAHQRVKYTKDHTVRSTGPAKSRDGERTVYCNVHKHEPLVLFCESCDTLTCRDCQLNAHKDHQYQFLEDAVRNQRKLLASLVKRLGDKHATLQKSTKEVRSSIRQVSDVQKRVQVDVKMAILQIMKELNKRGRVLVNDAQKVTEGQQERLERQHWTMTKIQKHQEHILRFASWALESDNNTALLLSKKLIYFQLHRALKMIVDPVEPHGEMKFQWDLNAWTKSAEAFGKIVAERPGTNSTGPAPMAPPRAPGPLSKQGSGSSQPMEVQEGYGFGSGDDPYSSAEPHVSGVKRSRSGEGEVSGLMRKVPRVSLERLDLDLTADSQPPVFKVFPGSTTEDYNLIVIERGAAAAATGQPGTAPAGTPGAPPLAGMAIVKEEETEAAIGAPPTATEGPETKPVLMALAEGPGAEGPRLASPSGSTSSGLEVVAPEGTSAPGGGPGTLDDSATICRVCQKPGDLVMCNQCEFCFHLDCHLPALQDVPGEEWSCSLCHVLPDLKEEDGSLSLDGADSTGVVAKLSPANQRKCERVLLALFCHEPCRPLHQLATDSTFSLDQPGGTLDLTLIRARLQEKLSPPYSSPQEFAQDVGRMFKQFNKLTEDKADVQSIIGLQRFFETRMNEAFGDTKFSAVLVEPPPMSLPGAGLSSQELSGGPGDGP [TRIM28] | 0.119 | 48.2 °C | 49.2 °C | -0.0696 | 1.33 | 6.59 |
| MAASAGAGAVIAAPDSRRWLWSVLAAALGLLTAGVSALEVYTPKEIFVANGTQGKLTCKFKSTSTTGGLTSVSWSFQPEGADTTVSFFHYSQGQVYLGNYPPFKDRISWAGDLDKKDASINIENMQFIHNGTYICDVKNPPDIVVQPGHIRLYVVEKENLPVFPVWVVVGIVTAVVLGLTLLISMILAVLYRRKNSKRDYTGCSTSESLSPVKQAPRKSPSDTEGLVKSLPSGSHQGPVIYAQLDHSGGHHSDKINKSESVVYADIRKN [MPZL1] | 0.534 | 57.8 °C | 58.1 °C | -0.289 | -1.73 | -3.55 |
